The source of these data is article PMC6755086.

Several values for one entry are separate records, joined by “and”; a condition that tells them apart may be missing. Equal values may be shown once.

The target of this assay is Burkholderia pseudomallei Class 2 OLD protein, full-length (Bp^FL, residues 1-594) (Burkholderia pseudomallei). As to the kind of experiment: SEC-MALS. On the technique in general: SEC sorts molecules by how far they enter the pores of the column.

As for “Burkholderia pseudomallei Class 2 OLD protein, full-length (Bp^FL, residues 1-594) (enzyme)”, the stoichiometry N is 2 and 4.

One may read the stoichiometry N as a count of units in the complex or per binding partner.
